The record followed here is the supplement of paper PMC9170038.

The series deals with MS2 coat protein. As to the kind of experiment: apparent KD of MS2 coat protein; designed switch direction (-1 OFF switch, 1 ON switch): -1; higher = weaker reporter binding. An outline of the steps:
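Designed RNA switches sharing common flanks were transcribed on Illumina chips by stalled E. coli RNA polymerase. They were titrated with SNAP-549-labelled MS2 coat protein, from 0.7 or 1.5 nM doubling to 3 µM, in Tris-HCl pH 7.5 buffer with KCl, MgCl2, BSA, DTT, tRNA and Tween-20. Titrations ran without input, with 200 uM small-molecule ligand, or with an oligonucleotide input. The apparent KD of each design is the median over its clusters, after curve-fitting of normalised cluster fluorescence.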

[1] abbreviates: Eterna round: R95, input ligand: microRNA oligo, concentration not stated.
Setting [2] is: input ligand: microRNA oligo, concentration not stated.

With “GUAGAGUAAGGAUAUGCAGAAUAGGAUAGAAUGGAUAGAAUGCAGAAGGUACAUGAGGAUCACCCAUGUAAUGU [Excluse me!!!! 1 - Jieux - Exclusion 4] (puzzle: Exclusion 4)”, the “apparent KD of MS2 coat protein” value under setting [1] came to 19.3 nM.

As for “GUAGAGUAAGGAUAUUGUGAAUAGGAUAGAAUGGUUAGAAGCAAGAAGGUACAUGAGGAUCACCCAUGUAAUGU [Excluse me!!!! 25 - Jieux - Exclusion 4] (puzzle: Exclusion 4)”, the “apparent KD of MS2 coat protein” value under setting [1] stood at 23.1 nM.

As to “GUAGAGUCAGGAUAUACGAGAUCGAAAGAUCGGCGGUCCUUACAUGAGGAUCACCCAUGUAGAAGGGACUCUAC [Omei mod 6 to Eli's favorate candidate (ch.parushev)] (Eterna round: R97, puzzle: Exclusion 2)”, the “apparent KD of MS2 coat protein” value (input ligand: FMN 200 uM) stood at 258 nM and the “apparent KD of MS2 coat protein” value (input ligand: none) came out at 71.3 nM.

For the sequence “GUAGAGUCAGGAUAUACGAGAUCGAAAGAUCUUUGAUCCUUACAUGAGGAUCACCCAUGUAGAAGGGACUCUAC [Omei mod 2 to Eli's favorate candidate (ch.parushev)] (Eterna round: R97, puzzle: Exclusion 2)”, the “apparent KD of MS2 coat protein” value by setting is: (input ligand: FMN 200 uM) 513 nM; (input ligand: none) 43.2 nM.

Consider “GUAUAACAUGUAGGAUAUGCAUGGCGAAGCUAUGCAGAAGGACAUGAGGAUCACCCAUGUAAUAGCGUCUGCGUACAGAUGCAA [Mat - Exclusion NG 1 - Mod of JL - D91] (Eterna round: R96, puzzle: Exclusion NG 1)”, for which the “apparent KD of MS2 coat protein” value is 186 nM (input ligand: FMN 200 uM), 29.4 nM under setting [2] and 38.7 nM (input ligand: none).

Consider “GUAUAGCUAAAGGAUAUUCUCCGACGACGUGAAGAAGAAGGUUGGACAUGAGGAUCACCCAUGUGUACAGGAUA [Eternabot (L2) Solution 62] (Eterna round: R97, puzzle: Exclusion 6)”, for which the “apparent KD of MS2 coat protein” value was found to be 21.9 nM (input ligand: FMN 200 uM) and 21.8 nM (input ligand: none).

With “GUCAGCUCGUCAGGAUAUGCACAUGAGGAUCACCCAUGUAAGAUCAAGCUGCUUCGGCAGCAAGUGCAGAAGGGACGAGCUGAU [ENG2/9-B3] (Eterna round: R96, puzzle: Exclusion NG 2)”, the “apparent KD of MS2 coat protein” value (input ligand: FMN 200 uM) worked out at 156 nM, the “apparent KD of MS2 coat protein” value under setting [2] amounted to 214 nM and the “apparent KD of MS2 coat protein” value (input ligand: none) is 294 nM.

For “GUCAGCUCGUGAGGAUAUACAUCACUGCUUCGGCAGUGUAUUAAGAUCACAUGAGGAUCACCCAUGUAGAAGGUACGAGCUGAU [ENG2/2-C2] (Eterna round: R96, puzzle: Exclusion NG 2)”, the “apparent KD of MS2 coat protein” value is, setting by setting: (input ligand: FMN 200 uM) 214 nM; under setting [2], 17.6 nM; (input ligand: none) 26.9 nM.

On to “GUCAGGAAUGUAGGAUAUCUGCACGUUUAGUGCAGAGAAGGACAUGAGGAUCACCCAUGUAUAGUAGCUUCGGCUACACCUGAC [ENG1-A2] (Eterna round: R96, puzzle: Exclusion NG 1)”, for which the “apparent KD of MS2 coat protein” value runs as follows: (input ligand: FMN 200 uM) 19.3 nM; under setting [2], 12.5 nM; (input ligand: none) 15.9 nM.

Consider “GUCCGGCAUGUAGGAUAUGGAUCCGAUUAGGAUUUAGAAGGACAUGAGGAUCACCCAUGUACAUGUAAUUAGUCAUUACCGGAC [EXclNG1-LROPPY02] (Eterna round: R96, puzzle: Exclusion NG 1)”, for which the “apparent KD of MS2 coat protein” value was determined as 40.2 nM (input ligand: FMN 200 uM), 17.8 nM under setting [2] and 22.2 nM (input ligand: none).

As to “GUCGUGCAGCUUUGCUGUACGAGUACAUGAGGAUCACCCAUGUAGGAUAUGGUACGCUUUGCGUGCUAGAAGGAUAUGUGUAGA [salish99_ExNG3_r04_502] (Eterna round: R96, puzzle: Exclusion NG 3)”, the “apparent KD of MS2 coat protein” value reads like this: (input ligand: FMN 200 uM) 53.5 nM; under setting [2], 30.2 nM; (input ligand: none) 36.1 nM.

For the sequence “GUCUAACAUGAGGAUCACCCAUGUCAGGAUAUGCGAAUUUCAUCAAAAGAUGAAAUUUGCAGAAGGGACUAGAC [Omei Ex1 A28] (Eterna round: R97, puzzle: Exclusion 1)”, the “apparent KD of MS2 coat protein” value (input ligand: FMN 200 uM) stood at 26.6 nM and the “apparent KD of MS2 coat protein” value (input ligand: none) is 24.1 nM.

As for “GUCUCACAUGAGGAUCACCCAUGUGAGGAUAUACUGGGCAUUCUGGUGGCAGGUGGGCGUAGAAGGCACGUGGG [Eternabot (L1) Solution 82] (Eterna round: R97, puzzle: Exclusion 1)”, the “apparent KD of MS2 coat protein” value is 33.8 nM (input ligand: FMN 200 uM) and 19.4 nM (input ligand: none).

For the sequence “GUCUCCAGAGGAUAUCUUUUACGCGACAUGAGGAUCACCCAUGUAGAGGAGAUUGUCAGGAGAGAAGGCUGGGACG [Eternabot (L1) Solution 56] (Eterna round: R97, puzzle: Exclusion 5)”, the “apparent KD of MS2 coat protein” value came out at 55.1 nM (input ligand: FMN 200 uM) and 42.7 nM (input ligand: none).

Take “GUCUCGUCAGGAUAUGACGCUACAUUUUGUUUUUAGAAGAGUCAGAAGGGACAUGAGGAUCACCCAUGUGAUUC [Ex4 - 3 - 1] (puzzle: Exclusion 4)”: the “apparent KD of MS2 coat protein” value under setting [1] stood at 257 nM.

“GUCUUAAGUUAAACCGAUUACAUGAGGAUCACCCAUGUGAACAUGACAGUCCGCAUGAGGAGUUUCUUGCUCGUCAU [Eternabot (L1) Solution 28] (Eterna round: R97, puzzle: Sensor, turn-off variant 1)”: the “apparent KD of MS2 coat protein” value reads like this: (input ligand: FMN 200 uM) 49.6 nM; (input ligand: none) 46.8 nM.

Consider “GUCUUACAUGAGGAUCACCCAUGUGAGGAUAUGAGUGGUGCUGCUAGGUAGUAUAGACUCAGAAGGCGCAUGAU [Malcxlusion 3 - Jieux - Exclusion 1] (Eterna round: R97, puzzle: Exclusion 1)”, for which the “apparent KD of MS2 coat protein” value by setting is: (input ligand: FMN 200 uM) 37.7 nM; (input ligand: none) 22.6 nM.

As for “GUGAAGUAAGGAUAUACAUGAGGAUCACCCAUGUGUGGGAAGGUGAUGGGAGUAGGUAGUAGAAGGUACGAGGA [JR_Exclu3_Sub065] (puzzle: Exclusion 3)”, the “apparent KD of MS2 coat protein” value under setting [1] came to 108 nM.

Regarding “GUGAAGUAAGGAUAUAGUGGAAAAGAUAAGGUAUGAGAGUUCUAGAAGGUACAUGAGGAUCACCCAUGUUAGGG [JR_Exclu4_Sub085] (Eterna round: R96, puzzle: Exclusion 4)”, the “apparent KD of MS2 coat protein” value reads like this: (input ligand: FMN 200 uM) 324 nM; under setting [2], 212 nM; (input ligand: none) 360 nM.

Regarding “GUGAAGUAAGGAUAUAGUGGAAAAGAUAAGGUAUGAGAGUUCUAGAAGGUACAUGAGGAUCACCCAUGUUAGGG [JR_Exclu4_Sub085] (puzzle: Exclusion 4)”, under setting [1], the “apparent KD of MS2 coat protein” value came to 267 nM.

Consider “GUGCAGCGAGGAUAUACAGACGGGUCCAGUACGUGUCUUGGACUUGAGGAUCACCCAAGUAGAAGGCGUCUCAG [salish99_ex2_r4_609] (Eterna round: R97, puzzle: Exclusion 2)”, for which the “apparent KD of MS2 coat protein” value came out at 35.4 nM (input ligand: FMN 200 uM) and 36.8 nM (input ligand: none).

Consider “GUGGUAGGUUUUUCGAGUAACAUGAGGAUCACCCAUGUAUUAGUUGGAUGUAUCAAGCUUUUUGCUCGACUUAUAAA [JR_SV3TOV1_Sub043] (puzzle: Sensor v3, turn-off variant 1)”, for which the “apparent KD of MS2 coat protein” value reads like this: (Eterna round: R95, input ligand: FMN 200 uM) 249 nM; under setting [1], 40.6 nM; (Eterna round: R95, input ligand: none) 288 nM.

“GUGUACAGAGGAUAUACACGAGGAGUUACGAAAGUAACUUCACAUGAGGAUCACCCAUGUAGAAGGCUGUACAC [Dot plot directed v6] (puzzle: Exclusion 2)”: the “apparent KD of MS2 coat protein” value under setting [1] amounted to 25.4 nM.

Take “GUGUAGAGAGGAUAUACAUGAGGAUCACCCAUGUGAAUAAGAUAGAAUAAGAUAAAGUGUAGAAGGCUUAGUGU [Excluse me!!! 20 - Jieux - Exclusion 3] (puzzle: Exclusion 3)”: the “apparent KD of MS2 coat protein” value under setting [1] was 31.8 nM.

With “GUGUAGAUAGGAUAUACGAGAGUCUAGCGAAGCUAGAUUCUACAUGAGGAUCACCCAUGUAGAAGGGUCUACAC [Fiskers Ex 2 - 30] (puzzle: Exclusion 2)”, the “apparent KD of MS2 coat protein” value under setting [1] is 14.2 nM.

For the sequence “GUGUAGUCAGGAUAUACAUAGGAAGAGAAGAGAAGAUAAGCACAUGAGGAUCACCCAUGUAGAAGGGACAGUGU [Excluse me!! 3 - Jieux - Exclusion 2] (puzzle: Exclusion 2)”, under setting [1], the “apparent KD of MS2 coat protein” value is 57.4 nM.

Turning to “GUUAAUUGUGACAUGGGUGACAUGAGGAUCACCCAUGUCACAAGCUUUUUGUUCGUCUUAUAAUUAACCCAUGUCAC [Stov1/13-B2] (Eterna round: R97, puzzle: Sensor, turn-off variant 1)”, the “apparent KD of MS2 coat protein” value is 79.8 nM (input ligand: FMN 200 uM) and 94.8 nM (input ligand: none).

For the sequence “GUUCGACAUGAGGAUCACCCAUGUGAGGAUAUACGAUUAGCUGCUAGGUAGUUAGUAUGUAGAAGGUGCGUGUU [EX1 #70] (Eterna round: R97, puzzle: Exclusion 1)”, the “apparent KD of MS2 coat protein” value turned out to be 53.3 nM (input ligand: FMN 200 uM) and 54.2 nM (input ligand: none).

Turning to “UAAAACGGAGGAUAUACUGACCCUCAAAACAGACGCGCUGGACAUGAGGAUCACCCAUGUAGAAGGCCGAAUGC [Titeustele] (puzzle: Exclusion 2)”, the “apparent KD of MS2 coat protein” value under setting [1] came out at 21.7 nM.

Regarding “UAAACAAGCGAAAGAUCCCACAUGAGGAUCACCCAUGUGCUCGUCUUAUAAGGUACUGUGACGAAAGUCACGGUACC [Sensor 3, v1 - 91 v19] (Eterna round: R97, puzzle: Sensor, turn-off variant 1)”, the “apparent KD of MS2 coat protein” value (input ligand: FMN 200 uM) is 37.9 nM and the “apparent KD of MS2 coat protein” value (input ligand: none) was found to be 41 nM.

Regarding “UAAAGUAUAUAGGAUAUCUAGCUGGAUACAGCUAGAGAAGGAUGUACAUGAGGAUCACCCAUGUAAAUCAGUGA [Ex6/14-A3] (Eterna round: R97, puzzle: Exclusion 6)”, the “apparent KD of MS2 coat protein” value (input ligand: FMN 200 uM) amounted to 33.9 nM and the “apparent KD of MS2 coat protein” value (input ligand: none) is 16.5 nM.

“UAAAUAAAUGUAGGAUAUCUGCACGUGUAGUGCAGAGAAGGACAUGAGGAUCACCCAUGUAUAGUAGCUUCGGCUACAAAUAAU [ENG1-C3] (Eterna round: R96, puzzle: Exclusion NG 1)”: the “apparent KD of MS2 coat protein” value reads like this: (input ligand: FMN 200 uM) 110 nM; under setting [2], 69.3 nM; (input ligand: none) 88.8 nM.
